Publication PMC11508043 (Nature, 2023)

Biological target: Recombinant wild-type human histone H1.0 (human)
Test: turbidity

B1: ProTα (unlabelled) (natural protein, human)
chain: GPMSDAAVDTSSEITTKDLKEKKEVVEEAENGRDAPANGNANEENGEQEADNEVDEEEEEGGEEEEEEEEGDGEEEDGDEDEEAESATGKRAAEDDEDDDVDTKKQKTDEDD
  ProTα:H1 ratio at maximum phase separation: 1.2 ProTα:H1
